Drawing on PMC7954794 (2021), this text covers screen value for 5 variants.

To fix the notation:
B1: S. cerevisiae Abp1 (full length; SH3 domain 535-592 mutated) / Hua2 (parent complex)
chain 1: MALEPIDYTTHSREIDAEYLKIVRGSDPDTTWLIISPNAKKEYEPESTGSSFHDFLQLFDETKVQYGLARVSPPGSDVEKIIIIGWCPDSAPLKTRASFAANFAAVANNLFKGYHVQVTARDEDDLDENELLMKISNAAGARYSIQTSSKQQGKASTPPVKKSFTPSKSPAPVSKKEPVKTPSPAPAAKISSRVNDNNDDDDWNEPELKERDFDQAPLKPNQSSYKPIGKIDLQKVIAEEKAKEDPRLVQKPTAAGSKIDPSSDIANLKNESKLKRDSEFNSFLGTTKPPSMTESSLKNDDDKVIKGFRNEKSPAQLWAERKAKQNSGNAETKAEAPKPEVPEDEPEGEPDVKDLKSKFEGLAASEKEEEEMENKFAPPPKKSEPTIISPKPFSKPQEPVKAEEAEQPKTDYKKIGNPLPGMHIEADNEEEPEENDDDWDDDEDEAAQPPLPSRNVASGAPVQKEEPEQEEIAPSLPSRNSIPAPKQEEAPEQAPEEEIEEEAEEAAPQLPSRSSAAPPPPPRRATPEKKPKENPWATAEYDYDAAEDNELTFVENDKIINIEFVDDDWWLGELEKDGSKGLFPSNYVSLGN
chain 2: MQQTKFGKMYLDHDSVVEYSEDEIVEADRITLGYKKRLSMIENQMRHLLEDFSLDVQQIEPILADLQKYYDAFLQLLQKRNKSLQCKRSTHQPVPSPMNSQTSTNAKVNLSGKLMKFQLNSVQKFDEENILRILQNKIEFEHYFQIDKGKKQKVLLLAVYQCLNGPTRLHKVLNIEGIIHNNSIRTILGKQVSSSKWTVFLYDVKLVLLAHRQDVPNLETSKMIVRYGDLFPCALYFKDHTAY

The assay covers variants of B1. Kind of assay: DHFR protein-fragment complementation in yeast (Abp1-DHFR F[1,2] x partner-DHFR F[3]), deep mutational scanning, second methotrexate selection vs reference; S. cerevisiae, DHFR-PCA selection in liquid with methotrexate at 30 C, two 72 h selections (the score uses the second); reference = the pre-selection culture.
As for chain 1 MALEPIDYTTHSREIDAEYLKIVRGSDPDTTWLIISPNAKKEYEPESTGSSFHDFLQLFDETKVQYGLARVSPPGSDVEKIIIIGWCPDSAPLKTRASFAANFAAVANNLFKGYHVQVTARDEDDLDENELLMKISNAAGARYSIQTSSKQQGKASTPPVKKSFTPSKSPAPVSKKEPVKTPSPAPAAKISSRVNDNNDDDDWNEPELKERDFDQAPLKPNQSSYKPIGKIDLQKVIAEEKAKEDPRLVQKPTAAGSKIDPSSDIANLKNESKLKRDSEFNSFLGTTKPPSMTESSLKNDDDKVIKGFRNEKSPAQLWAERKAKQNSGNAETKAEAPKPEVPEDEPEGEPDVKDLKSKFEGLAASEKEEEEMENKFAPPPKKSEPTIISPKPFSKPQEPVKAEEAEQPKTDYKKIGNPLPGMHIEADNEEEPEENDDDWDDDEDEAAQPPLPSRNVASGAPVQKEEPEQEEIAPSLPSRNSIPAPKQEEAPEQAPEEEIEEEAEEAAPQLPSRSSAAPPPPPRRATPEKKPKENPWATAEYDYDAAEDNELTFVENDKIINIEFVDNDWWLGELEKDGSKGLFPSNYVSLGN [chain 1 D567N], the screen value was -1.8 DMS score: mean over two replicates of log2(f_test/f_ref + 0.5)/ln 2, minus the synonymous-codon median (not a log2 ….
Turning to chain 1 MALEPIDYTTHSREIDAEYLKIVRGSDPDTTWLIISPNAKKEYEPESTGSSFHDFLQLFDETKVQYGLARVSPPGSDVEKIIIIGWCPDSAPLKTRASFAANFAAVANNLFKGYHVQVTARDEDDLDENELLMKISNAAGARYSIQTSSKQQGKASTPPVKKSFTPSKSPAPVSKKEPVKTPSPAPAAKISSRVNDNNDDDDWNEPELKERDFDQAPLKPNQSSYKPIGKIDLQKVIAEEKAKEDPRLVQKPTAAGSKIDPSSDIANLKNESKLKRDSEFNSFLGTTKPPSMTESSLKNDDDKVIKGFRNEKSPAQLWAERKAKQNSGNAETKAEAPKPEVPEDEPEGEPDVKDLKSKFEGLAASEKEEEEMENKFAPPPKKSEPTIISPKPFSKPQEPVKAEEAEQPKTDYKKIGNPLPGMHIEADNEEEPEENDDDWDDDEDEAAQPPLPSRNVASGAPVQKEEPEQEEIAPSLPSRNSIPAPKQEEAPEQAPEEEIEEEAEEAAPQLPSRSSAAPPPPPRRATPEKKPKENPWATAEYDYDAAEDNELTFVENDKIINIEFVDDDWWLGELWKDGSKGLFPSNYVSLGN [chain 1 E575W], the screen value is -0.949 DMS score: mean over two replicates of log2(f_test/f_ref + 0.5)/ln 2, minus the synonymous-codon median (not a log2 ….
The value for chain 1 MALEPIDYTTHSREIDAEYLKIVRGSDPDTTWLIISPNAKKEYEPESTGSSFHDFLQLFDETKVQYGLARVSPPGSDVEKIIIIGWCPDSAPLKTRASFAANFAAVANNLFKGYHVQVTARDEDDLDENELLMKISNAAGARYSIQTSSKQQGKASTPPVKKSFTPSKSPAPVSKKEPVKTPSPAPAAKISSRVNDNNDDDDWNEPELKERDFDQAPLKPNQSSYKPIGKIDLQKVIAEEKAKEDPRLVQKPTAAGSKIDPSSDIANLKNESKLKRDSEFNSFLGTTKPPSMTESSLKNDDDKVIKGFRNEKSPAQLWAERKAKQNSGNAETKAEAPKPEVPEDEPEGEPDVKDLKSKFEGLAASEKEEEEMENKFAPPPKKSEPTIISPKPFSKPQEPVKAEEAEQPKTDYKKIGNPLPGMHIEADNEEEPEENDDDWDDDEDEAAQPPLPSRNVASGAPVQKEEPEQEEIAPSLPSRNSIPAPKQEEAPEQAPEEEIEEEAEEAAPQLPSRSSAAPPPPPRRATPEKKPKENPWATAEYDYDAAEDNELTFVENDKIINIEFVDDDWWLGELEKDGSKGLFPSNYVSLTN [chain 1 G591T] was 0.63 DMS score: mean over two replicates of log2(f_test/f_ref + 0.5)/ln 2, minus the synonymous-codon median (not a log2 …; that for chain 1 MALEPIDYTTHSREIDAEYLKIVRGSDPDTTWLIISPNAKKEYEPESTGSSFHDFLQLFDETKVQYGLARVSPPGSDVEKIIIIGWCPDSAPLKTRASFAANFAAVANNLFKGYHVQVTARDEDDLDENELLMKISNAAGARYSIQTSSKQQGKASTPPVKKSFTPSKSPAPVSKKEPVKTPSPAPAAKISSRVNDNNDDDDWNEPELKERDFDQAPLKPNQSSYKPIGKIDLQKVIAEEKAKEDPRLVQKPTAAGSKIDPSSDIANLKNESKLKRDSEFNSFLGTTKPPSMTESSLKNDDDKVIKGFRNEKSPAQLWAERKAKQNSGNAETKAEAPKPEVPEDEPEGEPDVKDLKSKFEGLAASEKEEEEMENKFAPPPKKSEPTIISPKPFSKPQEPVKAEEAEQPKTDYKKIGNPLPGMHIEADNEEEPEENDDDWDDDEDEAAQPPLPSRNVASGAPVQKEEPEQEEIAPSLPSRNSIPAPKQEEAPEQAPEEEIEEEAEEAAPQLPSRSSAAPPPPPRRATPEKKPKENPWATAEYDYDAAEDNELTFVENDKIINIEFVDDDWWLGELEKDGSLGLFPSNYVSLGN [chain 1 K580L] was -0.907 DMS score: mean over two replicates of log2(f_test/f_ref + 0.5)/ln 2, minus the synonymous-codon median (not a log2 ….
To chain 1 MALEPIDYTTHSREIDAEYLKIVRGSDPDTTWLIISPNAKKEYEPESTGSSFHDFLQLFDETKVQYGLARVSPPGSDVEKIIIIGWCPDSAPLKTRASFAANFAAVANNLFKGYHVQVTARDEDDLDENELLMKISNAAGARYSIQTSSKQQGKASTPPVKKSFTPSKSPAPVSKKEPVKTPSPAPAAKISSRVNDNNDDDDWNEPELKERDFDQAPLKPNQSSYKPIGKIDLQKVIAEEKAKEDPRLVQKPTAAGSKIDPSSDIANLKNESKLKRDSEFNSFLGTTKPPSMTESSLKNDDDKVIKGFRNEKSPAQLWAERKAKQNSGNAETKAEAPKPEVPEDEPEGEPDVKDLKSKFEGLAASEKEEEEMENKFAPPPKKSEPTIISPKPFSKPQEPVKAEEAEQPKTDYKKIGNPLPGMHIEADNEEEPEENDDDWDDDEDEAAQPPLPSRNVASGAPVQKEEPEQEEIAPSLPSRNSIPAPKQEEAPEQAPEEEIEEEAEEAAPQLPSRSSAAPPPPPRRATPEKKPKENPYATAEYDYDAAEDNELTFVENDKIINIEFVDDDWWLGELEKDGSKGLFPSNYVSLGN [chain 1 W536Y] belongs 0.0348 DMS score: mean over two replicates of log2(f_test/f_ref + 0.5)/ln 2, minus the synonymous-codon median (not a log2 ….
